Consider four molecules from paper PMC9061721 (Nature Communications, 2022).

The target in experiment [1] is recombinant human insulin (Homo sapiens, UniProt P01308). The experiment in a line: ELISA. The following applies: both partners purified. (In general: In an ELISA, binding on a coated surface is turned into a signal by an enzyme label.)
In experiment [2] the target is T1, H3 peptide 36-57HA2 (wild type) (Influenza A virus A/Hong Kong/1/1968 …, UniProt Q91MA7, strain).
T1 construct: source: synthetic peptide
The experiment can be described thus: ELISA. The following applies: both partners purified.

Chain of recombinant human insulin (P01308 whole entry, looked up): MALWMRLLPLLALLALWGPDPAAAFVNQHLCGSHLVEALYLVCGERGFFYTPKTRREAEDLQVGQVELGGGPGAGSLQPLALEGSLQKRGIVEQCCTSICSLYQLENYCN

B1: antibody 28-6 (antibody, V domains shown)
VH: EVQLVQSGGGLAQPGGSLRLSCTASGFAFSSYGMNWVRQTPGKGLEWVSYISSGSTIIDYAGSVKGRFTISRDNAKNSLHLEMNSLRDEDTAVYYCARDRGCSSTTCYVIGYYYYGMDVWGQGTTVTVSS
VL: DIQMTQSPSSVSASVGDRVTITCRASQGINRRLVWYQQKPGKVPKLLIYDASSLQCGVPSRFSGSGSGTDFTITISSLQPEDFATYYCQQADSFPLTFGQGTRLEIK
As for B1, the binding result in experiment [1] is “no binding”.

B2: 3I14 (antibody, V domains shown)
VH: QVQLLESGGGVVQPGRSLRLSCAASGFTFSNYGMHWVRQAPGKGLEWVAIISFDGSKKYYANSVKGRSTISRDNSKNTLSLQMNSLGPEDTALYYCAKLPSPYYFDSRFVWVAASAFHFWGQGILVTVSS
VL: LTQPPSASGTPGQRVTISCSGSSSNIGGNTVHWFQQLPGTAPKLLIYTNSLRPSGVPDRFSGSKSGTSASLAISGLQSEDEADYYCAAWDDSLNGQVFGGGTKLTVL
notes: source: Expi CHO cells, cotransfected, purified (Protein A Agarose)
With B2, in experiment [2], the binding result is “binds”.

B3: antibody 28-4 (antibody, V domains shown)
VH: EVQLVQSGGGLVQPGGSLGLSCAASGFTFSNYNMNWVRQAPGKGLEWLAYISGSSNTIFYADSVKGRFTISRDNAKNSLHLQMSSLRDEDTAVYYCARDRGCNSNICYVVGYYFYGMDDWGQGTTVTVSS
VL: DIQMTQSPSSVSASVGDRVTITCRASQAITSYLVWYQQKPGKAPKLLIYDAARLESGVPSRFSGSGSGTHFTLTINNLQPEDFATYYCQQADSFPLTFGQGTRLEIK
Take B3: the binding result in experiment [1] was “no binding”.

B4: antibody 28-2 (antibody, V domains shown)
VH: EVQLVESGGGLVQPGGSLRLSCAASGFTFSTYSMNWVRQAPGKGLEWLSYISTSSSTIDYADSVKGRFTISRDNAKNSLYLQMNSLRDEDTAVYYCARDRGCSSTNCYVVGYYFYGMDVWGQGTTVTVSS
VL: DIQMIQSPSSVSASVGDRVTITCRASQGISSYLAWYQQKPGKAPKLLIYAASRLQSGVPSRFSGSGSGTDFTLTISGLQPEDFATYHCQQANSFPLTFGQGTRLEIK
As to B4, in experiment [1], the binding result was “no binding”.
